Results as given in article PMC7897678 (Frontiers in Immunology, 2020).

Target: T1, C1q isolated from mouse serum (mouse, UniProt P98086 23-245; P14106 26-253; Q02105 30-246)
T1 construct: complement C1q subcomponent chain A (C1qA), mouse; complement C1q subcomponent chain B (C1qB), mouse; complement C1q subcomponent chain C (C1qC), mouse; also called purified C1q; copies: 6 + 6 + 6
Experiment: ELISA; NP1, NP2 or PTX3 coated (10 µg/ml in PBS, overnight 4 °C), blocked with 4% BSA in PBS-T; C1q 5.6–45 µg/ml in PBS, 1 h at RT; bound C1q detected with anti-C1qb antibody
Conditions: both partners purified

T1 sequence (P98086 23-245, chain 1 of 3): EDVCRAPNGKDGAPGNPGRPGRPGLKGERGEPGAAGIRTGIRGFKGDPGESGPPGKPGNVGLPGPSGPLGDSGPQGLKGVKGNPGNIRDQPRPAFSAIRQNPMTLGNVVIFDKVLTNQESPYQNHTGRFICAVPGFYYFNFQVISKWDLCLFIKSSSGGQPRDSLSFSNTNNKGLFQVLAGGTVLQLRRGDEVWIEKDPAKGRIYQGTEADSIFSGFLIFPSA
T1 sequence (P14106 26-253, chain 2 of 3): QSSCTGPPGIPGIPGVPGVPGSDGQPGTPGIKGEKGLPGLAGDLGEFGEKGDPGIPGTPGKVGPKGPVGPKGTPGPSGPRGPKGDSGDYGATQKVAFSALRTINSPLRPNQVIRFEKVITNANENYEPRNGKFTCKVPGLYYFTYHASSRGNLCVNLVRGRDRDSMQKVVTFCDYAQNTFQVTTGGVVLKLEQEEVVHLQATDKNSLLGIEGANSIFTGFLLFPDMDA
T1 sequence (Q02105 30-246, chain 3 of 3): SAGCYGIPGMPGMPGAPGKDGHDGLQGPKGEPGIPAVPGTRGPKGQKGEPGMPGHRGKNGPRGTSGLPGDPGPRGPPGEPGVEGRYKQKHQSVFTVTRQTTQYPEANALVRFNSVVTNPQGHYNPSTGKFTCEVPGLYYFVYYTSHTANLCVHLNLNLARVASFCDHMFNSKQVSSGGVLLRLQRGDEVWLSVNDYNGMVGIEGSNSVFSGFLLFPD

Row | binding result | Binder
1 | binds | Recombinant human His-tagged neuronal pentraxin 1 (natural protein, UniProt Q15818 23-432, looked up, neuronal pentraxin 1 (NP1), human, recombinant; see the vendor's data sheet; also called NP1; NPs (with NP2); source: bought: R&D Systems (7707-NP-050)) QDFGPTRFICTSVPVDADMCAASVAAGGAEELRSSVLQLRETVLQQKETILSQKETIRELTAKLGRCESQSTLDPGAGEARAGGGRKQPGSGKNTMGDLSRTPAAETLSQLGQTLQSLKTRLENLEQYSRLNSSSQTNSLKDLLQSKIDELERQVLSRVNTLEEGKGGPRNDTEERVKIETALTSLHQRISELEKGQKDNRPGDKFQLTFPLRTNYMYAKVKKSLPEMYAFTVCMWLKSSATPGVGTPFSYAVPGQANELVLIEWGNNPMEILINDKVAKLPFVINDGKWHHICVTWTTRDGVWEAYQDGTQGGSGENLAPYHPIKPQGVLVLGQEQDTLGGGFDATQAFVGELAHFNIWDRKLTPGEVYNLATCSTKALSGNVIAWAESHIEIYGGATKWTFEACRQIN
2 | binds | Recombinant human His-tagged neuronal pentraxin 2 (natural protein, UniProt P47972 16-431, looked up, neuronal pentraxin 2 (NP2), human, recombinant; see the vendor's data sheet; also called NP2; NPs (with NP1); source: bought: R&D Systems (7816-NP-050)) GAQDSPAPGSRFVCTALPPEAVHAGCPLPAMPMQGGAQSPEEELRAAVLQLRETVVQQKETLGAQREAIRELTGKLARCEGLAGGKARGAGATGKDTMGDLPRDPGHVVEQLSRSLQTLKDRLESLEHQLRANVSNAGLPGDFREVLQQRLGELERQLLRKVAELEDEKSLLHNETSAHRQKTESTLNALLQRVTELERGNSAFKSPDAFKVSLPLRTNYLYGKIKKTLPELYAFTICLWLRSSASPGIGTPFSYAVPGQANEIVLIEWGNNPIELLINDKVAQLPLFVSDGKWHHICVTWTTRDGMWEAFQDGEKLGTGENLAPWHPIKPGGVLILGQEQDTVGGRFDATQAFVGELSQFNIWDRVLRAQEIVNIANCSTNMPGNIIPWVDNNVDVFGGASKWPVETCEERLLDL
